Laboratory results from patent publication US20200317768A1 (published 2020).

Target: T1, cynomolgus monkey FcγRIIIaS extracellular domain, C-terminal His-tag (cynomolgus monkey, UniProt A3RFZ7 21-206 (rhesus entry))
T1 construct: also called cyno FcγRIIIaS; cynoFcγRIIIaS; not shown: His-tag added to C-terminus
Experiment: SPR (Biacore), KD of SG1 / KD of variant;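 note: relative to parent M103205H795-SG1 carrying the SG1 human heavy chain constant region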

T1 sequence (A3RFZ7 21-206): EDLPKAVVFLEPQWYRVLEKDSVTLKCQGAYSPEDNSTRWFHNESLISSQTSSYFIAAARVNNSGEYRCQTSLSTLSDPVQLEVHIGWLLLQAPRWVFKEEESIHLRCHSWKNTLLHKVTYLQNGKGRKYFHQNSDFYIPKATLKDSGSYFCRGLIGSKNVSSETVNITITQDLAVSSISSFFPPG

Binder	KD fold (SG1 = 1)
MS_M103205H795-SG1/M103202L889-SK1 (antibody, human IgG1, kappa, Parent antibody; also called MS1032LO06-SG1) heavy: not shown light: DIVMTQSPATLSLSPGERATLSCTSSQSVYHANWLSWFQQKPGQPPKLLIYWASTLAYGVPSRFSGSGSGTDFTLTISSLQPEDAATYYCAGGYGGGRYAFGQGTKVEIKRTVAAPSVFIFPPSDEQLKSGTASVVCLLNNFYPREAKVQWKVDNALQSGNSQESVTEQDSKDSTYSLSSTLTLSKADYEKHKVYACEVTHQGLSSPVTKSFNRGEC	1 fold
M103205H795-MY142/M103202L889-SK1 (antibody, human IgG1, kappa) heavy: QVTLKESGPVLVKPTETLTLTCTVSGIDLSHDDISWVRQAPGKGLEWVGIISYAGSTYYASWAKGRLTISKDTSKNQVVLTMTNMDPVDTATYYCARGVPAYSHGGDLWGQGTLVTVSSASTKGPSVFPLAPSSKSTSGGTAALGCLVKDYFPEPVTVSWNSGALTSGVHTFPAVLQSSGLYSLSSVVTVPSSSLGTQTYICNVNHKPSNTKVDKKVEPKSCDKTHTCPPCPAPELLEGPSVFLFPPKPKDTLMISRTPEVTCVVVDVSEEDPEVKFNWYVDGVEVHNAKTKPREEQYNSTYRVVSVLTVLHQDWLNGKEYKCKVSNKALPAPIEKTISKAKGQPREPQVYTLPPSREEMTKNQVSLTCLVKGFYPSDIAVEWESNGQPENNYKTTPMVLDSDGSFFLYSKLTVDKSRWQQGNVFSCSVMHEALHNHYTQKSLSLSP light: DIVMTQSPATLSLSPGERATLSCTSSQSVYHANWLSWFQQKPGQPPKLLIYWASTLAYGVPSRFSGSGSGTDFTLTISSLQPEDAATYYCAGGYGGGRYAFGQGTKVEIKRTVAAPSVFIFPPSDEQLKSGTASVVCLLNNFYPREAKVQWKVDNALQSGNSQESVTEQDSKDSTYSLSSTLTLSKADYEKHKVYACEVTHQGLSSPVTKSFNRGEC	2.57 fold
M103205H795-MY143/M103202L889-SK1 (antibody, human IgG1, kappa) heavy: QVTLKESGPVLVKPTETLTLTCTVSGIDLSHDDISWVRQAPGKGLEWVGIISYAGSTYYASWAKGRLTISKDTSKNQVVLTMTNMDPVDTATYYCARGVPAYSHGGDLWGQGTLVTVSSASTKGPSVFPLAPSSKSTSGGTAALGCLVKDYFPEPVTVSWNSGALTSGVHTFPAVLQSSGLYSLSSVVTVPSSSLGTQTYICNVNHKPSNTKVDKKVEPKSCDKTHTCPPCPAPELLSGPSVFLFPPKPKDTLMISRTPEVTCVVVDVSEEDPEVKFNWYVDGVEVHNAKTKPREEQYNSTYRVVSVLTVLHQDWLNGKEYKCKVSNKALPAPIEKTISKAKGQPREPQVYTLPPSREEMTKNQVSLTCLVKGFYPSDIAVEWESNGQPENNYKTTPMVLDSDGSFFLYSKLTVDKSRWQQGNVFSCSVMHEALHNHYTQKSLSLSP light: DIVMTQSPATLSLSPGERATLSCTSSQSVYHANWLSWFQQKPGQPPKLLIYWASTLAYGVPSRFSGSGSGTDFTLTISSLQPEDAATYYCAGGYGGGRYAFGQGTKVEIKRTVAAPSVFIFPPSDEQLKSGTASVVCLLNNFYPREAKVQWKVDNALQSGNSQESVTEQDSKDSTYSLSSTLTLSKADYEKHKVYACEVTHQGLSSPVTKSFNRGEC	1.29 fold
M103205H795-MY209/M103202L889-SK1 (antibody, human IgG1, kappa) heavy: QVTLKESGPVLVKPTETLTLTCTVSGIDLSHDDISWVRQAPGKGLEWVGIISYAGSTYYASWAKGRLTISKDTSKNQVVLTMTNMDPVDTATYYCARGVPAYSHGGDLWGQGTLVTVSSASTKGPSVFPLAPSSKSTSGGTAALGCLVKDYFPEPVTVSWNSGALTSGVHTFPAVLQSSGLYSLSSVVTVPSSSLGTQTYICNVNHKPSNTKVDKKVEPKSCDKTHTCPPCPAPELLNGPSVFLFPPKPKDTLMISRTPEVTCVVVDVSDEDPEVKFNWYVDGVEVHNAKTKPREELYNSTYRVVSVLTVLHQDWLNGKEYKCKVSNTALPKPIEKTISKAKGQPREPQVYTLPPSREEMTKNQVSLTCLVKGFYPSDIAVEWESNGQPENNYKTTPPVLDSDGSFFLYSKLTVDKSRWQQGNVFSCSVMHEALHNHYTQKSLSLSP light: DIVMTQSPATLSLSPGERATLSCTSSQSVYHANWLSWFQQKPGQPPKLLIYWASTLAYGVPSRFSGSGSGTDFTLTISSLQPEDAATYYCAGGYGGGRYAFGQGTKVEIKRTVAAPSVFIFPPSDEQLKSGTASVVCLLNNFYPREAKVQWKVDNALQSGNSQESVTEQDSKDSTYSLSSTLTLSKADYEKHKVYACEVTHQGLSSPVTKSFNRGEC	0.16 fold
M103205H795-MY213/M103202L889-SK1 (antibody, human IgG1, kappa) heavy: QVTLKESGPVLVKPTETLTLTCTVSGIDLSHDDISWVRQAPGKGLEWVGIISYAGSTYYASWAKGRLTISKDTSKNQVVLTMTNMDPVDTATYYCARGVPAYSHGGDLWGQGTLVTVSSASTKGPSVFPLAPSSKSTSGGTAALGCLVKDYFPEPVTVSWNSGALTSGVHTFPAVLQSSGLYSLSSVVTVPSSSLGTQTYICNVNHKPSNTKVDKKVEPKSCDKTHTCPPCPAPELLNGPSVFLFPPKPKDTLMISRTPEVTCVVVDVSDEDPEVKFNWYVDGVEVHNAKTKPREEQYNSTYRVVSVLTVLHQDWLNGKEYKCKVSNKALPKPIEKTISKAKGQPREPQVYTLPPSREEMTKNQVSLTCLVKGFYPSDIAVEWESNGQPENNYKTTPKVLDSDGSFFLYSKLTVDKSRWQQGNVFSCSVMHEALHNHYTQKSLSLSP light: DIVMTQSPATLSLSPGERATLSCTSSQSVYHANWLSWFQQKPGQPPKLLIYWASTLAYGVPSRFSGSGSGTDFTLTISSLQPEDAATYYCAGGYGGGRYAFGQGTKVEIKRTVAAPSVFIFPPSDEQLKSGTASVVCLLNNFYPREAKVQWKVDNALQSGNSQESVTEQDSKDSTYSLSSTLTLSKADYEKHKVYACEVTHQGLSSPVTKSFNRGEC	0.19 fold
M103205H795-MY219/M103202L889-SK1 (antibody, human IgG1, kappa) heavy: QVTLKESGPVLVKPTETLTLTCTVSGIDLSHDDISWVRQAPGKGLEWVGIISYAGSTYYASWAKGRLTISKDTSKNQVVLTMTNMDPVDTATYYCARGVPAYSHGGDLWGQGTLVTVSSASTKGPSVFPLAPSSKSTSGGTAALGCLVKDYFPEPVTVSWNSGALTSGVHTFPAVLQSSGLYSLSSVVTVPSSSLGTQTYICNVNHKPSNTKVDKKVEPKSCDKTHTCPPCPAPELLGYPSVFLFPPKPKDTLMISRTPEVTCVVVDVSDEDPEVKFNWYVDGVEVHNAKTKPREEQYNSTYRVVSVLTVLHQDWLNGKEYKCKVSNKALPKPIEKTISKAKGQPREPQVYTLPPSREEMTKNQVSLTCLVKGFYPSDIAVEWESNGQPENNYKTTPPVLDSDGSFFLYSKLTVDKSRWQQGNVFSCSVMHEALHNHYTQKSLSLSP light: DIVMTQSPATLSLSPGERATLSCTSSQSVYHANWLSWFQQKPGQPPKLLIYWASTLAYGVPSRFSGSGSGTDFTLTISSLQPEDAATYYCAGGYGGGRYAFGQGTKVEIKRTVAAPSVFIFPPSDEQLKSGTASVVCLLNNFYPREAKVQWKVDNALQSGNSQESVTEQDSKDSTYSLSSTLTLSKADYEKHKVYACEVTHQGLSSPVTKSFNRGEC	0.06 fold
M103205H795-MY227/M103202L889-SK1 (antibody, human IgG1, kappa) heavy: QVTLKESGPVLVKPTETLTLTCTVSGIDLSHDDISWVRQAPGKGLEWVGIISYAGSTYYASWAKGRLTISKDTSKNQVVLTMTNMDPVDTATYYCARGVPAYSHGGDLWGQGTLVTVSSASTKGPSVFPLAPSSKSTSGGTAALGCLVKDYFPEPVTVSWNSGALTSGVHTFPAVLQSSGLYSLSSVVTVPSSSLGTQTYICNVNHKPSNTKVDKKVEPKSCDKTHTCPPCPAPELLGYPSVFLFPPKPKDTLMISRTPEVTCVVVDVSDEDPEVKFNWYVDGVEVHNAKTKPREEQYNSTYRVVSVLTVLHQDWLNGKEYKCKVSNKALPKPIEKTISKAKGQPREPQVYTLPPSREEMTKNQVSLTCLVKGFYPSDIAVEWESNGQPENNYKTTPKVLDSDGSFFLYSKLTVDKSRWQQGNVFSCSVMHEALHNHYTQKSLSLSP light: DIVMTQSPATLSLSPGERATLSCTSSQSVYHANWLSWFQQKPGQPPKLLIYWASTLAYGVPSRFSGSGSGTDFTLTISSLQPEDAATYYCAGGYGGGRYAFGQGTKVEIKRTVAAPSVFIFPPSDEQLKSGTASVVCLLNNFYPREAKVQWKVDNALQSGNSQESVTEQDSKDSTYSLSSTLTLSKADYEKHKVYACEVTHQGLSSPVTKSFNRGEC	0.09 fold
M103205H795-MY228/M103202L889-SK1 (antibody, human IgG1, kappa) heavy: QVTLKESGPVLVKPTETLTLTCTVSGIDLSHDDISWVRQAPGKGLEWVGIISYAGSTYYASWAKGRLTISKDTSKNQVVLTMTNMDPVDTATYYCARGVPAYSHGGDLWGQGTLVTVSSASTKGPSVFPLAPSSKSTSGGTAALGCLVKDYFPEPVTVSWNSGALTSGVHTFPAVLQSSGLYSLSSVVTVPSSSLGTQTYICNVNHKPSNTKVDKKVEPKSCDKTHTCPPCPAPELLGYPSVFLFPPKPKDTLMISRTPEVTCVVVDVSDEDPEVKFNWYVDGVEVHNAKTKPREELYNSTYRVVSVLTVLHQDWLNGKEYKCKVSNKALPKPIEKTISKAKGQPREPQVYTLPPSREEMTKNQVSLTCLVKGFYPSDIAVEWESNGQPENNYKTTPPVLDSDGSFFLYSKLTVDKSRWQQGNVFSCSVMHEALHNHYTQKSLSLSP light: DIVMTQSPATLSLSPGERATLSCTSSQSVYHANWLSWFQQKPGQPPKLLIYWASTLAYGVPSRFSGSGSGTDFTLTISSLQPEDAATYYCAGGYGGGRYAFGQGTKVEIKRTVAAPSVFIFPPSDEQLKSGTASVVCLLNNFYPREAKVQWKVDNALQSGNSQESVTEQDSKDSTYSLSSTLTLSKADYEKHKVYACEVTHQGLSSPVTKSFNRGEC	0.04 fold
M103205H795-MY229/M103202L889-SK1 (antibody, human IgG1, kappa) heavy: QVTLKESGPVLVKPTETLTLTCTVSGIDLSHDDISWVRQAPGKGLEWVGIISYAGSTYYASWAKGRLTISKDTSKNQVVLTMTNMDPVDTATYYCARGVPAYSHGGDLWGQGTLVTVSSASTKGPSVFPLAPSSKSTSGGTAALGCLVKDYFPEPVTVSWNSGALTSGVHTFPAVLQSSGLYSLSSVVTVPSSSLGTQTYICNVNHKPSNTKVDKKVEPKSCDKTHTCPPCPAPELLGYPSVFLFPPKPKDTLMISRTPEVTCVVVDVSDEDPEVKFNWYVDGVEVHNAKTKPREELYNSTYRVVSVLTVLHQDWLNGKEYKCKVSNKALPKPIEKTISKAKGQPREPQVYTLPPSREEMTKNQVSLTCLVKGFYPSDIAVEWESNGQPENNYKTTPKVLDSDGSFFLYSKLTVDKSRWQQGNVFSCSVMHEALHNHYTQKSLSLSP light: DIVMTQSPATLSLSPGERATLSCTSSQSVYHANWLSWFQQKPGQPPKLLIYWASTLAYGVPSRFSGSGSGTDFTLTISSLQPEDAATYYCAGGYGGGRYAFGQGTKVEIKRTVAAPSVFIFPPSDEQLKSGTASVVCLLNNFYPREAKVQWKVDNALQSGNSQESVTEQDSKDSTYSLSSTLTLSKADYEKHKVYACEVTHQGLSSPVTKSFNRGEC	0.09 fold
